Laboratory results as given in paper PMC6793440 (Journal of Experimental Botany, 2019).

T1: His-labeled kinase domain of CEPR2 (CEPR2^KD-His, amino acids 642–977) (Arabidopsis thaliana, UniProt Q9C7T7 642-977)
T1 sequence: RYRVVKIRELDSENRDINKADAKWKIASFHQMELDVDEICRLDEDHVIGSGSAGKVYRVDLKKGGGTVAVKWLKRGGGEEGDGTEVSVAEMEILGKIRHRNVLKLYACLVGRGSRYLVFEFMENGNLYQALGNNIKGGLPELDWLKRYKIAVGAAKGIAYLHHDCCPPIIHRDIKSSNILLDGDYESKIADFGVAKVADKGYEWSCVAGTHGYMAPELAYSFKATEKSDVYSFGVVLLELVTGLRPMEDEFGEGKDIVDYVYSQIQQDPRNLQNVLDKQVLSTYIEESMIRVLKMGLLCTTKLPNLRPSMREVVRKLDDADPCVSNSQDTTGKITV

B1: GST-tagged PYL2 (PYL2–GST) (receptor)
chain: MSSSPAVKGLTDEEQKTLEPVIKTYHQFEPDPTTCTSLITQRIHAPASVVWPLIRRFDNPERYKHFVKRCRLISGDGDVGSVREVTVISGLPASTSTERLEFVDDDHRVLSFRVVGGEHRLKNYKSVTSVNEFLNQDSGKVYTVVLESYTVDIPEGNTEEDTKMFVDTVVKLNLQKLGVAATSAPMHDDE
B2: GST-tagged PYL4 (PYL4–GST) (receptor)
chain: MLAVHRPSSAVSDGDSVQIPMMIASFQKRFPSLSRDSTAARFHTHEVGPNQCCSAVIQEISAPISTVWSVVRRFDNPQAYKHFLKSCSVIGGDGDNVGSLRQVHVVSGLPAASSTERLDILDDERHVISFSVVGGDHRLSNYRSVTTLHPSPISGTVVVESYVVDVPPGNTKEETCDFVDVIVRCNLQSLAKIAENTAAESKKKMSL

Target: T1, His-labeled kinase domain of CEPR2 …
Experiment: pull-down

| Binder | binding result |
| --- | --- |
| B1 | binds |
| B2 | binds |
